Series [1] in a line: Storage of the CD samples for one month at 4° C. It is filed as physicochemical. The method, then:
(§1) Samples for circular dichroism (CD) measurements were prepared in 10 mM aqueous phosphate buffer solution, pH 7.0, containing 200 ppm LL-37 (as the trifluoroacetate, lot 971/26), with and without 0.40% CPL-Galactolipid. The samples, 20 ml in 50 ml glass flasks, were vigorously shaken with an ST mixer (type B1, E. Büchler, Tübingen) set at 7.5 (corresponding to an approximate frequency of 220/min) for 2 h. They were then allowed to equilibrate and settle over night at 2-8° C.
An anionic synthetic phospholipid, palmitoyl-oleoyl-phosphatidylglycerol (POPG; Sigma-Aldrich, P6956) was used as a reference and tested using the same experimental conditions as described above.

A short description of series [2]: Circular dichroism (CD) conformational measurements. The class given is physicochemical. The method, then:
as §1
CD spectra were recorded on a Jasco J-720 (Jasco Inc.) spectropolari-meter. The sample compartment with the cuvette cell (1 mm path length) was placed near the photomultiplier, in order to reduce effects of light scattering from the disper-sions. The samples were measured at room temperature and scanned from 280 to 200 nm at a rate of 20 nm/min, with a resolution of 1 nm and 3 accumulations per run. The results are expressed as the mean residue ellipticity, [θ], and the percentage of α-helical conformation at 222 nm is estimated by the following formula: ([θ]222+3900)·100/41900.
(In general: CD spectra are sensitive to the conformation of chiral molecules.)

Turning to “LLGDFFRKSKEKIGKEFKRIVQRIKDFLRNLVPRTES [LL-37]”, the appearance after storage entry in series [1] (LL-37 with POPG) is listed as “partially separated, with sediments on the bottom of the container”; in series [1] (LL-37 with galactolipid), “redispersed to a fine dispersion by gentle agitation”. In addition, the “percentage α-helical structure” value in series [2] (200 ppm LL-37 in 10 mM phosphate buffer, pH 7.0, from minimum at 222 nm) is “about 63%”; in series [2] (200 ppm LL-37 with 0.40% (w/w) galactolipid, 10 mM phosphate buffer pH 7.0), around 64%; in series [2] (LL-37 with POPG (anionic phospholipid), same conditions) it was 58%.

For the origin of these results see patent US8936807B2, “Use of the cathelicidin LL-37 and derivatives thereof for wound healing” (Lipopeptide AB, priority 2003, dated 2015).
